From patent US20250295734A1, “ANTICOAGULANT PROTEINS AND THEIR USE FOR TREATING DISEASES ASSOCIATED WITH THE ACTIVATION OF NEUTROPHILS” (BIOXODES, priority 2018, published 2025)

Key:
[1] = tested on: thrombin generation induced by TF (extrinsic pathway activator); conditions: induced by low concentration of TF (5 pM); cited from earlier work
Factor XIIa = biological target: T1, Factor XIIa (Homo sapiens, UniProt P00748); conditions: cited from earlier work
T1 construct: The resulting α-FXIIa has a heavy chain of 50 kDa, connected to a light chain of 28 kDa
T1 sequence (P00748 20-372 limits assumed): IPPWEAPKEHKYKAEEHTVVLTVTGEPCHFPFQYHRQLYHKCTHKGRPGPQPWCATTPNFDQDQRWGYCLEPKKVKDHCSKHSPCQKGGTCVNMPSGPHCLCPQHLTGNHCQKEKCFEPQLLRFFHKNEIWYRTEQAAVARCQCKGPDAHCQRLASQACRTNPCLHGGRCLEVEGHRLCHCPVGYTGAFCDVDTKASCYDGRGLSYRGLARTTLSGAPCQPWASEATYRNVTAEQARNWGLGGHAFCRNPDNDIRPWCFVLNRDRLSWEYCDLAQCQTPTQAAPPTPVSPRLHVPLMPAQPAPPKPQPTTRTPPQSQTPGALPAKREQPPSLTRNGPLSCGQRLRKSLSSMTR
T1 sequence (P00748 373-615 limits assumed): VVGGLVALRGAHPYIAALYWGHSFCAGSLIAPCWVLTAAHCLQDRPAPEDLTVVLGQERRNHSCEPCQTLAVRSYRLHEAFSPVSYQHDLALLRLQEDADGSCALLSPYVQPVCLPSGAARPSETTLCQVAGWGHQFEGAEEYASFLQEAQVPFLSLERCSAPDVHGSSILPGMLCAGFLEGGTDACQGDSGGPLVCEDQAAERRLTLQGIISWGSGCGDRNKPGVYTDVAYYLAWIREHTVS

[2] = tested on: neutrophils isolated from the bone marrow of femurs of mice; test: In vitro NETosis assay; type: cell-based, mice (C57BL/6); conditions: PMNs primed with TNFα, activated with PAF
Method: Neutrophils were isolated from the bone marrow of femurs of mice (C57BL/6) as previously described (Hu 2012) using FR-1-coupled magnetic beads (anti-Ly6G Microbead Kit, Miltenyi Biotec).
Cells were harvested, centrifugated and incubated during 30 min with or without 2 ng/ml of TNFα in Hanks solution (Gibco). Neutrophils were seeded on slides coated with poly-L-lysine and incubated at 37° C. for 1 h in Hanks solution. Next, neutrophils were activated with or without 25 μM of platelet-activating factor (PAF)±Ir-CPI (0.65 or 2 μM) in Hanks solution (3 h at 37° C.). NET formation was assessed by immunofluorescence (fluorescent microscope from Leica) after fixation of neutrophils with 4% PAF (paraformaldehyde) and fluorescent labelling of citrullinated histones (H3 antibody) and nuclei (Hoechst). Processing and analysis of images was performed using the FIJI software.
Percentage of NETosis (median) was presented for 5 independent experiments. A Wilcoxon test was used for statistical analysis (ns: not significant; *p<0.05; **p<0.01; ***p<0.001). […]

[3] = tested on: polymorphonuclear neutrophils (PMNs); test: Laser-induced vessel wall injury: PMN accumulation (anti-Ly6G); type: in vivo, mice (C57BL/6JRj); conditions: iv bolus 20.5 mg/kg + infusion 3.7 mg/kg/h
Method: Ir-CPI was administered intravenously as a bolus (20.5 mg/kg) immediately followed by a continuous infusion at a rate of 3.7 mg/kg/h (see Table 1 below). Due to fast distribution and elimination of Ir-CPI in the mice (t1/2α=14 min and t1/2β=236 min), the combination of the bolus and the infusion was chosen in order to maintain a constant Ir-CPI concentration into the blood.
Vessel wall injury was induced with a Micropoint Laser System (Photonics Instruments) focused through the microscope objective, parfocal with the focal plane and aimed at the vessel wall, as previously described (Dubois et al., 2006). Typically, 1 or 2 pulses were required to induce vessel wall injury.
Multiple thrombi were studied in a single mouse, with new thrombi formed upstream of earlier thrombi to avoid any contribution from thrombi generated earlier in the animal under study. Laser-beam injuries were done at various time after the start of test-item administration (+5 min up to about 150 min after bolus administration of Ir-CPI or NaCl (control)).
Image analysis was performed using Slidebook 4.1 (Intelligent Imaging Innovations). Fluorescence data were captured digitally at up to 50 frames per second and analyzed as previously described (Falati et al., 2002). The kinetics of thrombus formation were analyzed by determining median fluorescence values over time in a minimum number of 20 thrombi.
Detection of PMNs in vivo was performed using PE-labelled anti-Ly6G antibody.
To determine whether Ir-CPI has an impact on the accumulation of PMNs at the site of injury, the accumulation of PMNs on the injured vessel wall was monitored using a PE-fluorescently labeled antibody directed against Ly6G (FIG. 5).

B1: Ir-CPI: Ixodes ricinus salivary gland polypeptide, contact phase inhibitor, MW=7660 Da; sequence SEQ ID NO: 1 or SEQ ID NO: 2 (protein)
chain: ANHKGRGRPAKCKLPPDDGPCRARIPSYYFDRKTKTCKEFMYGGCEGNENNFENITTCQEECRAKKV
[1]
  thrombin generation: quite inactive
Factor XIIa
  activation of Factor XI by Factor XIIa: inhibit activation
  activation of PK by Factor XIIa: inhibit activation
[2]; Ir-CPI 0.65 μM, *p<0.05 vs TNFα and PAF
  percentage of NET formation: significant reduction
[2]; Ir-CPI 2 μM, ***p<0.001 vs TNFα and PAF
  percentage of NET formation: significant reduction
[3]; at T 261 sec
  maximal median of integrated PMN fluorescence (anti-Ly6G): 3.02×10^6 AU
[3]; at T 270 sec (end of measurement)
  median of integrated PMN fluorescence: 2.78×10^6 AU
[3]; first 4.5 min after laser injury
  PMN accumulation compared to control mice: drastically decreased
